According to patent publication US20100298202A1, “BRI POLYPEPTIDES AND REDUCING AB AGGREGATION” (MAYO FOUNDATION FOR MEDICAL EDUCATION AND RESEARCH, priority 2007, published 2010):

Target: Aβ42 (Homo sapiens, UniProt P05067)
Test: Aβ42 aggregation with oxidized or reduced BRI polypeptides (native gel/western blot, ELISA-based assay)
Assay type: biochemical
Details: oxidized form (no DTT), 2 μM polypeptide, 1.5 μM Aβ42, 5 hours at 37° C.
Description: FIG. 10. […] BRI polypeptides in DMSO were diluted into 150 mM NaCl, 20 mM Tris-HCl, pH7.4 (TBS) at a final concentration of 2 μM in the absence (OX) or presence (RED) of 2 mM DTT. Mixtures were incubated for 10 minutes at room temperature and then chilled to 0° C. A control samples lacking any BRI polypeptide were prepared identically using DMSO alone. Aβ42 in DMSO then was added to a final concentration of 1.5 μM, and the mixtures divided into two aliquots. One aliquot was incubated for 5 hours at 0° C., and the other was incubated at 37° C. to induce Aβ42 aggregation. At the end of the incubation, all samples were returned to 0° C. to stop further aggregation prior to analysis. Aggregation was assessed either by native gel electrophoresis followed by western blotting (panel A) or by the ELISA-based assay (panel B).

Chain of Aβ42 (P05067 672-713 limits assumed): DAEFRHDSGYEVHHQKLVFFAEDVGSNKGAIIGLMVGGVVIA

| Substance | Aβ42 aggregation in vitro |
| --- | --- |
| Bri24: C-terminal fragment of BRI1 (ITM2A), AIDKCWKIRHFPNEFIVETICICQD (SEQ ID NO: 5) | inhibit Aβ42 aggregation |
| Bri25: C-terminal fragment of BRI3 (ITM2C), GAICNCNAIRHFENTFVVETLICGVV (SEQ ID NO: 6) | inhibit Aβ42 aggregation |
